Source: PMC2901993 (Biochemical and biophysical research communications, 2010)

Target: T1, translin-associated factor x (trax), mouse, N-terminal 6x-His tag (mouse (M. musculus), UniProt Q9QZE7 1-290)
T1 sequence (looked up): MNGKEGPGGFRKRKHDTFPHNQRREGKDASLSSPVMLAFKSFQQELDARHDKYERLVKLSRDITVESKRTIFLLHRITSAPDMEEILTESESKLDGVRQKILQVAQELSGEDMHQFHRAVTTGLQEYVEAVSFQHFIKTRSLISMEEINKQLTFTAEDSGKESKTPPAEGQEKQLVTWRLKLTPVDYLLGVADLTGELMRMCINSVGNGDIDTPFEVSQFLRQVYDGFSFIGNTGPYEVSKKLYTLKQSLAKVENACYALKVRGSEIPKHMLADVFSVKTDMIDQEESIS
Test: pull-down

B1: translin (mouse), co-expressed with trax from pETDuet-1 (natural protein, mouse (M. musculus), UniProt Q62348 1-228, looked up)
chain: MSVSEIFVELQGFLAAEQDIREEIRKVVQSLEQTAREILTLLQGVHQGTGFQDIPKRCLKAREHFSTVKTHLTSLKTKFPAEQYYRFHEHWRFVLQRLVFLAAFVVYLETETLVTREAVTEILGIEPDREKGFHLDVEDYLSGVLILASELSRLSVNSVTAGDYSRPLHISTFINELDSGFRLLNLKNDSLRKRYDGLKYDVKKVEEVVYDLSIRGFNKETAAACGEK
**Q.** B1 was tested. Which “stoichiometry N” value did it give?
**A.** ~1
